Earlier results in paper PMC5120336.

Target: IRAK-4 kinase domain (Homo sapiens) (UniProt Q9NWZ3)

Sequence of IRAK-4 kinase domain (Q9NWZ3 154-460): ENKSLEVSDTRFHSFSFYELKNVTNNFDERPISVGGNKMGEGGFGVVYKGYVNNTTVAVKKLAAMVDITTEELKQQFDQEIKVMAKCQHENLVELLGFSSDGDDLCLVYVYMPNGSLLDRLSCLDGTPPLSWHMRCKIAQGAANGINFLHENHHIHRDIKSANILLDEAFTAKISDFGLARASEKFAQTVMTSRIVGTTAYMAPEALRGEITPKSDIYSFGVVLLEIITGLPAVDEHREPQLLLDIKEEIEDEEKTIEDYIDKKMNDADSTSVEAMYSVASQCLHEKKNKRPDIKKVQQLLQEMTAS

Kd: 2.5 µM
Substance: IRAK-4 kinase domain (from UniProt Q9NWZ3)
